# In PMC12543280:
# B1: C. elegans APE-1 (sole ASPP homolog), endogenous, tagged with GFP and 3xflag [C. elegans] / C. elegans GSP-2 (PP1 homolog), endogenously HaloTagged [modified: JF646 dye on the HaloTag (single-molecule assay); JFX646 dye on the … (parent)
# chain 1: MVTTSSGGGIGYPANNGVTQVSLIHSSDSVRTVSTAPIYRPTSSMASTMAHKSSTAPFISANQRMSKPPVRVVAQPPPPHPQALSQQYHQQNPMMMYSAPNTRPHVIPTMQVQPTMAAQIKRNNPVNAQFQNPSEMIADYGVKPQSVEMVQRVRAVRRQVADEETELRRLRELEHETAQLQNKNYGRERELNVQGSMLKEAQLELRNASMRAQSLNKHLEEMYRRRQTAAAAALVEQRKMQQHQILLARAANQVSTQEVIRPRASVEPFQVNNTQQQQPSPQMMKSEEFSEKRDLNGQTGSYDAIDGSGDHQKIPTEPSYLAPCKENQQKYSELSKMASTDPHSNHSSPSTSSQKAPTLITFSPPSFEQKINSSTMTRDSPFVERPTSFGDSLDESRLRSGKTDLVSLRSDSLKATKRRSWAASEGTSMSEAEMIHRLLDEQRRGRSHFIPQLPTSQEEPSAITSETYAEEVVNSESKQVATSSDSTNNLELPTEQMVLGSDTTTEEDASSCSTRSDDGQNLEMEVAIERRTVKGILRRPNEKMNKGRIEFDPLALLLDAALEGELDLVRSSASKLTDVSQANDEGITALHNAICAGHYEIVRFLIENDADVNAQDSDGWTPLHCAASCNNLPMVRQLVEGGGCVLASTLSDMETPVEKCEEDEDGYDGCLKYLSAAHNSTGSINTGKVYAAYGYEAAFEDELSFDAGDELTVIEKDKVDKNWWTCEKNNGEKGQVPRTYLALYPSLKYRKKLNFVMFDLPLESNNNVE
# chain 2: MDVEKLNLDNIISRLLEVRGSKPGKNVQLTESEIKGLCQKSREIFLSQPILLELEAPLKICGDVHGQYYDLLRLFEYGGFPPESNYLFLGDYVDRGKQSLETICLLLAYKIKYPENFFLLRGNHECASINRIYGFYDECKRRYNIKLWKTFTDCFNCLPVAAIIDEKIFCCHGGLSPDLQSMEQIRRIMRPTDVPDQGLLCDLLWSDPDKDVTGWGENDRGVSFTFGPEVVAKFLHKHDLDLICRAHQVVEDGYEFFAKRQLVTLFSAPNYCGEFDNAGSMMTVDETLMCSFQILKPADKKKYPYGAGGVGSNRPVTPPRNAPAAQPKKGAKK
# Key:
# [1] = variants of: B1; experiment: single-molecule photobleaching analysis by TIRF microscopy; conditions: with C. elegans GSP-2 (PP1 homolog)
# [2] = variants of: B1; experiment: MudPIT analysis of 3xflag immunoprecipitations from whole-worm lysates; conditions: with C. elegans GSP-2 (PP1 homolog) in whole-worm lysates of the MudPIT experiment [C. elegans (endogenous in whole worms)]; for response (% of total protein): parent: 10.8; for screen value: parent: 20
"screen value ([1]; p=0.531 vs APE-1, read off a plot) [%]",response (% of total protein) ([2]; bait recovered in same sample: 0.12 % of total protein (wild-type bait 0.54)),screen value [2],"screen value ([1]; p = 0.008 vs APE-1, read off a plot) [%]",response (% of total protein) ([2]; bait recovered in same sample: 0.22 % of total protein (wild-type bait 0.54)),Variant
37,0.87,7,–,–,chain 1 H591Y
–,–,4,34,0.87,chain 1 N583K
